Assay results reported in patent publication US10407662B2, “Method of culturing pluripotent stem cell, and polypeptide to be used therefor” (FUJIFILM Corporation, priority 2012, dated 2019).

Assays:
human iPS cells [1] = test: Cell Adhesiveness Evaluation 2 (synthetic peptide inhibition of cell adhesion to natural vitronectin); format: cell-based; settings: 100 μM synthetic peptide
Description: Polypeptides listed in Table 7 were synthesized by Emoc solid phase synthesis. A surface to which natural vitronectin was adsorbed at a concentration of 130 pmol/m^2, and thereafter, a cell suspension to which 100 μM of the above-described synthetic peptide was added was seeded at a rate of 30,000 cells/well. The number of adherent cells after 24 h post seeding was calculated by the same technique as in <Cell Adhesiveness Evaluation 1>.

[2] = Evaluation of adsorptivity to culture plate (OPA fluorescence); format: physicochemical; settings: FIG. 1; for adsorptivity to a plate: 0 to 200 pmol/cm^2, 37° C. 2 hours, washed with PBS twice
Description: Each polypeptide obtained by the above-described method was diluted with a predetermined buffer so as to be added to wells at a predetermined final concentration of from 0 to 200 pmol/cm^2, and the resultant was aliquoted in 64 μL to a 96-well plate made of polystyrene and treated with plasma (Tissue Culture-Treated, Falcon). Each polypeptide was adsorbed to the plate by incubation at 37° C. for 2 hours, and was thereafter washed with PBS twice, to obtain a surface coated with each of the polypeptides of from RCP-1 to RCP-16.
To surfaces coated with RCP-1, and from RCP-11 to RCP-16 among the polypeptide-coated surfaces obtained as described above, 64 μL of each of boric acid buffer and 1 N NaOH was applied, and incubated at 80° C. and a humidity of 100% for 24 hours. After air-cooling, 75 μL of boric acid buffer was added to each well, and 50 μL of reaction liquid in which an OPA (o-phthalaldehyde: Wako Pure Chemical Industries, Ltd.)/methanol solution (160 mg/ml) and an NAC (N-acetyl-L-cysteine: Wako Pure Chemical industries, Ltd.)/boric acid buffer solution (2 mg/ml) were mixed at 1:100 (mass ratio) was further added. After incubation at 40° C. for 30 minutes, the fluorescence intensity thereof was measured (excitation of 355 nm/fluorescence of 486 nm) using an ENVISION MULTI-LABEL COUNTER (PerkinElmer Inc.). A calibration curve was separately made from each polypeptide solution, to calculate an amount of adsorption. In FIG. 1, a black rhombus, a black tetragon, a black triangle, a black circle, a white rhombus, a white tetragon, and a white triangle represent RCP-1, RCP-11, RCP-12, RCP-13, RCP-14, RCP-15, and RCP-16, respectively.

[3] = Presence or absence of aggregation after dialysis; format: physicochemical; settings: after stepwise dialysis removing urea
Description: For from RCP-1 to RCP-10, and RCP-17, each polypeptide solution after the purification was dialyzed using a SLIDE-A-LIZER (3.5K MWCO). A dialysis external liquid was based on a dialysis buffer (PBS, 1.5 M NaCl, 0.5 M L-arginine, 1 mM EDTA, pH 7.4), and urea was removed by stepwise dialysis. The concentration of an end dialysis product was calculated at an absorbance of 280 nm using a NANODROP (Thremo Fisher Scientific Inc.).
In addition, the presence or absence of aggregation was evaluated by G, A, and B below.
G: Formation of an aggregate is not observed.
A: Formation of particles having a particle diameter of around 100 nm is observed.
B: Formation of visible aggregation with a particle diameter of 1 mm or more is observed.

human iPS cells [4] = test: Proliferation Evaluation of iPS cells on polypeptide-coated plate; format: cell-based; settings: for The Number (%) of Cells after 3 Days: 5000 cells/well
Description: The iPS cells collected in the same manner as in <Cell Adhesiveness Evaluation 1>described above were seeded on a 96-well plate, to which RCP-1, RCP-11, and the natural human vitronectin were adsorbed, at a rate of 250 cells/well, and were cultured in a 5% CO2 incubator at 37° C. for 8 days. The number of adherent cells after each lapse of time was measured by the same method as in <Cell Adhesiveness Evaluation 1> described above, to obtain proliferation curves, The proliferation curves were indicated in FIG. 2. In FIG. 2, a black rhombus represents an example in which RCP-1 was used, while a black tetragon represents an example in which RCP-11 was used.
Similarly, each of samples from […] was prepared so as to have an addition concentration listed in Table 8 with each of from RCP-1 to RCP-10, and RCP-17, and Human Recombinant Laminin-511 as a reference, was seeded on a 96-well plate, to which each polypeptide was adsorbed, at a rate of 5000 cells/well in the same manner as in<Cell Adhesiveness Evaluation 1> described above, and was cultured in a CO2 incubator at 37° C. for 3 days. The number of cells after the 3 days was measured by the same method as in <Cell Adhesiveness Evaluation 1> described above.

human iPS cells [5] = test: Cell Adhesiveness Evaluation 3 (RCP-1 addition amount series); format: cell-based; settings: adding not less than 125 pmol/cm^2
Description: Cell adhesiveness was evaluated in the same manner as in <Cell Adhesiveness Evaluation 1> except that RCP-1 was adjusted with PBS to have a concentration of from 125 pmol/cm^2 to 1000 pmol/cm^2 to be used. In Table 9, cell adhesion rates were relative values in a case in which a cell adhesion rate to a cultivation container to which natural vitronectin was adsorbed at a concentration of 130 pmol/cm^2 was regarded as 100. n=3.

human iPS cells [6] = test: Evaluation of Maintenance of Undifferentiation (colony form, NANOG staining); format: cell-based
Description: iPS cells collected in the same manner as in <Cell Adhesiveness Evaluation 1> described above were suspended in TESR2. Induced pluripotent stem cells (iPS cells) were seeded on a 6-well plate (Tissue Culture-Treated, Falcon) to which each of the sample 1, the sample 2, the sample 5, the sample 6, and the sample 7 used in <Cell Adhesiveness Evaluation 1> described above was adsorbed in the same manner as in <Cell Adhesiveness Evaluation 1>, and were cultured in a CO2 incubator at 37° C. The culture medium was replaced by a fresh culture medium every day except the next day after the seeding. Subculture was performed by the same method as mentioned above every six days.
The cells were cultured under these conditions for 1 month, thereafter immobilized with 4% paraformaldehyde, and made to have membrane permeability enhanced with 1% Triton-X/PBS. Blocking treatment was performed with an Image IT Signal Enhancer (Invitrogen), followed by adding an anti-human NANOG antibody (AF1997, R&D Systems, Inc), ALEXA FLUOR 555-CONJUGATE rabbit anti-goat IgG antibody (Invitrogen), and DAPI (Dojindo Laboratories), by performing labeling, and by photographing the cells with a fluorescence microscope.
In each of FIG. 3 and FIG. 4, “A”, “B”, “C” “D”, and “E” show iPS cells cultured on RCP-1, iPS cells cultured on RCP-11, iPS cells cultured on the natural human vitronectin, iPS cells cultured on rinaminin-5, and iPS cells cultured on rLaminin-511, respectively. Scale bar: 100 μm. In FIG. 3, overall colony images are shown in the left column, while magnified images are shown in the right column; and in FIG. 4, DAPI-stained images are shown in the left column while anti-NANOG antibody-stained images are shown in the right column. Scale bars in FIGS. 3 and 4: 200 μm.

CCTDYTAECKPQVTRGEVFT [Peptide-7]
inhibition of cell adhesion to natural vitronectin (in words) (human iPS cells [1]): adhesion inhibition did not occur

TAECKPQVTRGEVGTMPEDE (TAECKPQVTRGEVFTMPEDE) [Peptide-8]
inhibition of cell adhesion to natural vitronectin (in words) (human iPS cells [1]): adhesion inhibition did not occur

RCP-14: comparative recombinant polypeptide, GPLG + human vitronectin positions 1-55 (GPLGDQESCKGRCTEGFNVDKKCQCDELCSYYQSCCTDYTAECKPQVTRGDVFTMPEDE; Synthetic Peptide RCP-14) [reference compound]
adsorption amount relative to that of the polypeptide containing SEQ ID NO:2 [2]: ¼
adsorptivity to a plate [2]: inadequate as an adsorbent to a culture plate

B1: RCP-13: comparative recombinant polypeptide, GPLG + human vitronectin positions 1-55, 56-129 (protein)
chain: GPLGDQESCKGRCTEGFNVDKKCQCDELCSYYQSCCTDYTAECKPQVTRGDVFTMPEDEYTVYDDGEEKNNATVHEQVGGPSLTSDLQAQSKGNPEQTPVLKPEEEAPAPEVGASKPEGIDSRPETLHPGRPQP
modifications: Synthetic Peptide RCP-13
adsorption amount relative to that of the polypeptide containing SEQ ID NO:2 [2]: ¼
adsorptivity to a plate [2]: inadequate as an adsorbent to a culture plate

B2: RCP-10: recombinant polypeptide, Met + human vitronectin positions 1-55, 269-373, 374-399, C274S (protein)
chain: MDQESCKGRCTEGFNVDKKCQCDELCSYYQSCCTDYTAECKPQVTRGDVFTMPEDESQEESEGSSLSAVFEHFAMMQRDSWEDIFELLFWGRTSAGTRQPQFISRDWHGVPGQVDAAMAGRIYISGMAPRPSLAKKQRFRHRNRKGYRSQRGHSRGRNQNSRRPSRATWLSLFSSEESNLGANNYD
modifications: Synthetic Peptide RCP-10
notes: recombinant polypeptide, Met + human vitronectin positions 1-55, 269-373, 374-399, C274S
Aggregation [3]: B (Formation of visible aggregation with a particle diameter of 1 mm or more is observed.)
The Number (%) of Cells after 3 Days (human iPS cells [4]; addition amount 20 μg/cm^2): 101.9%

B3: RCP-16: comparative recombinant polypeptide, GPLG + human vitronectin positions 269-459 (protein)
chain: GPLGPSQEECEGSSLSAVFEHFAMMQRDSWEDIFELLFWGRTSAGTRQPQFISRDWHGVPGQVDAAMAGRIYISGMAPRPSLAKKQRFRHRNRKGYRSQRGHSRGRNQNSRRPSRATWLSLFSSEESNLGANNYDDYRMDWLVPATCEPIQSVFFFSGDKYYRVNLRTRRVDTVDPPYPRSIAQYWLGCPAPGHL
modifications: Synthetic Peptide RCP-16
adsorptivity to a plate [2]: favorable adsorptivity to a plate, equivalent to that of RCP-11

B4: RCP-15: comparative recombinant polypeptide, GPLG + human vitronectin positions 56-459 (protein)
chain: GPLGYTVYDDGEEKNNATVHEQVGGPSLTSDLQAQSKGNPEQTPVLKPEEEAPAPEVGASKPEGIDSRPETLHPGRPQPPAEEELCSGKPFDAFTDLKNGSLFAFRGQYCYELDEKAVRPGYPKLIRDVWGIEGPIDAAFTRINCQGKTYLFKGSQYWRFEDGVLDPDYPRNISDGFDGIPDNVDAALALPAHSYSGRERVYFFKGKQYWEYQFQHQPSQEECEGSSLSAVFEHFAMMQRDSWEDIFELLFWGRTSAGTRQPQFISRDWHGVPGQVDAAMAGRIYISGMAPRPSLAKKQRFRHRNRKGYRSQRGHSRGRNQNSRRPSRATWLSLFSSEESNLGANNYDDYRMDWLVPATCEPIQSVFFFSGDKYYRVNLRTRRVDTVDPPYPRSIAQYWLGCPAPGHL
modifications: Synthetic Peptide RCP-15
adsorptivity to a plate [2]: favorable adsorptivity to a plate, equivalent to that of RCP-11

B5: RCP-9: recombinant polypeptide, Met + human vitronectin positions 1-55, 269-373, 374-389, C274S (protein)
chain: MDQESCKGRCTEGFNVDKKCQCDELCSYYQSCCTDYTAECKPQVTRGDVFTMPEDESQEESEGSSLSAVFEHFAMMQRDSWEDIFELLFWGRTSAGTRQPQFISRDWHGVPGQVDAAMAGRIYISGMAPRPSLAKKQRFRHRNRKGYRSQRGHSRGRNQNSRRPSRATWLSLFSSE
modifications: Synthetic Peptide RCP-9
notes: recombinant polypeptide, Met + human vitronectin positions 1-55, 269-373, 374-389, C274S
Aggregation [3]: B (Formation of visible aggregation with a particle diameter of 1 mm or more is observed.)
The Number (%) of Cells after 3 Days (human iPS cells [4]; addition amount 20 μg/cm^2): 105.8%

B6: RCP-1: recombinant polypeptide, Met + human vitronectin (SEQ ID NO:3) positions 1-55, 269-459 (protein)
chain: MDQESCKGRCTEGFNVDKKCQCDELCSYYQSCCTDYTAECKPQVTRGDVFTMPEDEPSQEECEGSSLSAVFEHFAMMQRDSWEDIFELLFWGRTSAGTRQPQFISRDWHGVPGQVDAAMAGRIYISGMAPRPSLAKKQRFRHRNRKGYRSQRGHSRGRNQNSRRPSRATWLSLFSSEESNLGANNYDDYRMDWLVPATCEPIQSVFFFSGDKYYRVNLRTRRVDTVDPPYPRSIAQYWLGCPAPGHL
modifications: Synthetic Peptide RCP-1
adsorptivity to a plate [2]: favorable adsorptivity to a plate, equivalent to that of RCP-11
cell proliferation property (in words) (human iPS cells [4]; FIG. 2 and Table 8): higher cell proliferation property than that of RCP-11
The Number (%) of Cells after 3 Days (human iPS cells [4]; addition amount 80 μg/cm^2): 100.0%
adhesiveness of iPS cells (in words) (human iPS cells [5]): cell adhesion rate equivalent to that of natural vitronectin
form of iPS cell colonies (human iPS cells [6]; FIG. 3, TESR2, subculture every six days): homogeneous colony and a form characteristic for undifferentiated cells having a high nucleus occupying rate
NANOG expression (immunostaining) (human iPS cells [6]; FIG. 4, cultured for 1 month): strongly expressed NANOG in an overall colony
maintenance of undifferentiated state (human iPS cells [6]; cultured for 1 month): undifferentiated state was favorably maintained
